“And” between values parts separate entries of the source, which are not always exact repeats. Equal values may be shown once.

The results in this text go back to patent publication US20220195054A1 (BERGEN TEKNOLOGIOVERF RING, published 2022).

The target in assay [1] is T1, recombinant human Axl-Fc chimera (rhAxl-Fc; R&D Systems, Cat. no. 154-AL) (human, UniProt P30530 26-451).
T1 construct: Bought construct; also called rhAxi-Fc; Hu-Axl-Fc; Fc part of the bought chimera not given
The experiment in a line: SPR (Biacore 3000, 25 C), rhAxl-Fc immobilised; ln2/koff.

Assay [2] concerns the target T1, recombinant human Axl-Fc chimera …. The experiment in a line: SPR (Biacore), rhAxl immobilised; same values as Table 1.
For assay [3] the target is unchanged. The experiment in a line: SPR (Biacore 3000, 25 C), rhAxl-Fc immobilised (190 RU), antibody as analyte, koff/kon. In general terms: Surface plasmon resonance follows binding to a sensor surface in real time, without labels.
Assay [4] shares this target. The experiment in a line: SPR (Biacore 3000, 25 C), rhAxl-Fc immobilised (190 RU), antibody as analyte, 1:1 Langmuir.
Assay [5] has as its target T2, recombinant cyno-Axl-Fc (extracellular domain of Axl from Macaca fascicularis fused to human Fc) (cynomolgus monkey (Macaca fascicularis), UniProt P30530 26-451 (human entry)).
T2 construct: Made by transient expression in CHO cells; also called Axl from cynomolgus monkey; not shown: human Fc
T2 chain: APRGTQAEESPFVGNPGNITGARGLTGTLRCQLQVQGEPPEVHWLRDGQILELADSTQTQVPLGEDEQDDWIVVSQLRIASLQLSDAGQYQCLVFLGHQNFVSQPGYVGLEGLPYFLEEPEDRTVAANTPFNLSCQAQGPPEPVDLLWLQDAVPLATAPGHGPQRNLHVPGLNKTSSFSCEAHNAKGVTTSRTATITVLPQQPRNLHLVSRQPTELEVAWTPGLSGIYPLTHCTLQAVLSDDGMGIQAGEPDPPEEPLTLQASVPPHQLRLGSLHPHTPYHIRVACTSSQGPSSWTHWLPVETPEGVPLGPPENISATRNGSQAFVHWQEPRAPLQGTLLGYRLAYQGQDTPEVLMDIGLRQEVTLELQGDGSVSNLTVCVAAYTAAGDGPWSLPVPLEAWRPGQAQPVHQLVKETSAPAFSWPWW
The experiment in a line: Biacore 3000 SPR, cyno-Axl-Fc on a CM5 chip, antibody injected at 10 µg/mL for 3 min, 5 min dissociation [upper panel 10G5].

The target in assay [6] is T3, recombinant human Mer-Fc chimera (rhMer-Fc; R&D Systems, Cat no. 891-MR) (human, UniProt Q12866 21-505).
T3 construct: Bought construct; Fc part of the bought chimera not given
T3 sequence: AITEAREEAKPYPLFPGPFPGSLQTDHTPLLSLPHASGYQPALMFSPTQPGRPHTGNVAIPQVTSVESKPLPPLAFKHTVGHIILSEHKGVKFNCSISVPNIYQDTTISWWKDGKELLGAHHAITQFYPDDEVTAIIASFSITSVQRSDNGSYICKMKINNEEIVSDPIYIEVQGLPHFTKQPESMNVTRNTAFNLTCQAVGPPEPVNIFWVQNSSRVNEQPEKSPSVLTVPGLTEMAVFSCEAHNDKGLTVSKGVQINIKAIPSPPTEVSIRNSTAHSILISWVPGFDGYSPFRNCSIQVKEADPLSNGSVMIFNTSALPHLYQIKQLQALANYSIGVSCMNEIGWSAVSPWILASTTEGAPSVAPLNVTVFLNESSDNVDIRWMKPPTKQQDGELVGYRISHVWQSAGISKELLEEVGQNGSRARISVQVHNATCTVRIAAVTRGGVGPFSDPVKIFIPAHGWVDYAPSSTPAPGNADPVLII
The experiment in a line: Biacore 3000 SPR, rhMer-Fc on a CM5 chip, antibody injected for 3 min; concentration from Example 2, not printed on the sheet.

For assay [7], the target named is T4, recombinant human Tyro3/Dtk-Fc chimera (rhTyro3/Dtk-Fc; R&D Systems, Cat no. 859-DK) (human, UniProt Q06418 41-429).
T4 construct: Bought construct; Fc part of the bought chimera not given
T4 sequence: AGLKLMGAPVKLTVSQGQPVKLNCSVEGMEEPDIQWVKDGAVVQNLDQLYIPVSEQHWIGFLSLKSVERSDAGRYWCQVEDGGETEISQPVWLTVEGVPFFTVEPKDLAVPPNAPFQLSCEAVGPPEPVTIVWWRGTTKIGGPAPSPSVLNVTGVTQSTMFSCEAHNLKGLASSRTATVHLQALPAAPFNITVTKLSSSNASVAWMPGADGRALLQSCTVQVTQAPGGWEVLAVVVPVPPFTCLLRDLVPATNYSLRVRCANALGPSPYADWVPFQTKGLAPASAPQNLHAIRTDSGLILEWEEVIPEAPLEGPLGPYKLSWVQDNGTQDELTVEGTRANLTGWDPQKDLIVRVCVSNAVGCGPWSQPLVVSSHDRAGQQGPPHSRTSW
The experiment in a line: Biacore 3000 SPR, rhTyro3/Dtk-Fc on a CM5 chip, antibody injected for 3 min; concentration from Example 2, not printed on the sheet.

In assay [8] the target is recombinant human Axl-Fc chimera (rhAxl-Fc; R&D Systems, Cat. no. 154-AL) (human) (UniProt P30530). The experiment in a line: SPR two-injection competition on immobilised Axl-Fc; first injection.
Assay [9] has the same target. The experiment in a line: SPR two-injection competition on immobilised Axl-Fc; second injection, competitor bound first: 10G5.
Assay [10] has the same target. The experiment in a line: SPR two-injection competition on immobilised Axl-Fc; second injection, competitor bound first: YW327.6S2.
For assay [11] the target is unchanged. The experiment in a line: SPR two-injection competition on immobilised Axl-Fc; response expected for the second sample (first: 10G5).
Assay [12] has the same target. The experiment in a line: SPR two-injection competition on immobilised Axl-Fc; response expected for the second sample (first: YW327.6S2).
Assay [13] has as its target T5, human Axl receptor on cells (MDA-MB-231, HeLa, LX2, Axl-positive cells) (human, UniProt P30530 26-894). The experiment in a line: cell-based or functional assay.
In assay [14] the target is T5, human Axl receptor on cells …. The experiment in a line: cell-based or functional assay. This is another data set of the same source.
The target in assay [15] is T1, recombinant human Axl-Fc chimera …. The experiment in a line: SPR (Biacore), rhAxl immobilised on the sensor chip.
Assay [16] has the same target. The experiment in a line: SPR (Biacore), rhAxl immobilised on the sensor chip, antibody as analyte.
Assay [17] concerns the target T5, human Axl receptor on cells …. The experiment in a line: flow cytometry on MDA-MB-231 cells, APC-conjugated anti-human IgG F(ab')2 detection.
The target is the same in assay [18]. The experiment in a line: flow cytometry titration on MDA-MB-231 cells, Kd of the fitted curve, the axis of the fitted curves is Conc. (nM) [table under the graph]. (Flow cytometry measures light scatter and fluorescence of single cells or particles in a stream.)
Assay [19] deals with recombinant human Axl-Fc chimera (rhAxl-Fc; R&D Systems, Cat. no. 154-AL) (human) (UniProt P30530). The experiment in a line: SPR two-injection competition on immobilised Axl-Fc; second injection, competitor bound first: Gas6.
The target is the same in assay [20]. The experiment in a line: SPR two-injection competition on immobilised Axl-Fc; second injection, competitor bound first: H2L1.
Assay [21] shares this target. The experiment in a line: SPR two-injection competition on immobilised Axl-Fc; response expected for the second sample (first: Gas6).
The target is the same in assay [22]. The experiment in a line: SPR two-injection competition on immobilised Axl-Fc; response expected for the second sample (first: H2L1).

B1: mouse monoclonal antibody 10G5 (antibody, V domains shown)
VH: QVQLQQSGAELVRPGASVKLSCKASGYSFTDFYINWVRQRPGQGLEWIARIFPGGDNTYYNEKFKGKATLTAEESSSTAYIQLSSLTSEDSAVYFCARRGLYYAMDYWGQGISVTVSS
VL: DVLMTQTPLSLPVSLGDQASISCRSSQSLVHSNGIPYLHWYLQKPGQSPKLLIYRVSNRFSGVPDRFSGSGSGTDFTLKISRVEAEDLGVYFCSQGTHVPPTFGGGTKLEIK
notes: Whole mouse IgG purified from hybridoma supernatant; also called murine 10G5; MAb 10G5
On to B1, for which the “Half-life (t1/2)” value in [1] and in assay [2] was 26.3 min each time. Also, the Kd in assay [2] and in assay [3] was 0.53 nM throughout. Moreover, the koff in assay [2] and in [4] was 0.000439 s⁻¹ each time. Besides, the kon in assay [2] and in assay [4] was 829000 M⁻¹ s⁻¹ in each case. For the same molecule, the binding result in [5] is given as “binds”; in assay [6], “no binding (tested: 10 µg/mL)”; in assay [7], “no binding (tested: 10 µg/mL)”.

B2: chimeric 1H12 anti-Axl antibody (antibody, from another filing, V domains shown)
VH: EVQLVESGGDLVKPGGSLKLSCAASGFTFSSYGMSWVRQTPDKRLEWVATISSGGSYTYYPDSVKGRFTISRDNAKNTLYLQMSSLKSEDTAMYYCARHPIYYTYDDTMDYWGQGTSVTVSS
VL: ENVLTQSPAIMAASPGEKVTMTCSASSSVSSGNFHWYQQKPGTSPKLWIYRTSNLASGVPARFSGSGSGTSYSLTISSMEAEDAATYYCQQWSGYPWTFGGGTKLEIK
Turning to B2, the 1st Response in assay [8] was 400 and 220. Further, the 2nd Response in assay [9] was 180; in assay [10] it was 400. Further, the Expected response if independent in [11] amounted to 220; in [12], 400.

B3: humanised 10G5 antibody H1L1 (antibody, human IgG1, kappa, V domains shown)
VH: EVQLVQSGAGLVQPGGSVRLSCAASGYSFTDFYINWVRQAPGKGLEWIARIFPGGDNTYYNEKFKGRFTLSADTSSSTAYLQLNSLRAEDTAVYYCARRGLYYAMDYWGQGTLVTVSS
VL: DIQMTQSPSSLSASVGDRVTITCRSSQSLVHSNGIPYLHWYQQKPGKAPKLLIYRVSNRFSGVPSRFSGSGSGTDFTLTISSLQPEDFATYYCSQGTHVPPTFGQGTKVEIKR
notes: H1L1 is read as GH1 heavy chain + GL1 light chain; also called hu10G5 H1L1
Turning to B3, in [13], the “EC50 (pM), killing of MDA-MB-231 cells by antibody coupled to Saporin (FabFc-ZAP), XTT/PMS viability after 72 hrs” value is 3.44 pM. Besides, the “EC50 (pM), tumour cell killing by antibody-Saporin conjugates, as in Example 20” value in assay [14] worked out at 17.1 pM. Moreover, the “Half-life (t1/2)” value in assay [15] was 71.7 min. Moreover, in [16], the Kd – broadly, the free concentration of one partner at which half of the binding sites on the other are occupied at equilibrium, for simple one-to-one binding – came out at 0.105 nM; the dissociation rate constant (koff) (commonly a measure of how fast the partners let go of each other) amounted to 0.000161 s⁻¹; the association rate constant (kon) (in general, the second-order rate constant of association) came out at 1.54e+06 M⁻¹ s⁻¹. Moreover, the concentration for a half-maximal effect (EC50 (read off the curve)) (as a rule, the concentration giving half of the maximal effect) in assay [17] is roughly 0.1 nM. In [18], this molecule yielded a Kd of 0.12 nM.

B4: humanised 10G5 antibody H2L1 (antibody, human IgG1, kappa, V domains shown)
VH: EVQLVESGGGLVQPGGSLRLSCAASGYSFTDFYINWVRQAPGKGLEWVARIFPGGDNTYYNEKFKGRFTLSADTSKSTAYLQMNSLRAEDTAVYYCARRGLYYAMDYWGQGTLVTVSS
VL: DIQMTQSPSSLSASVGDRVTITCRSSQSLVHSNGIPYLHWYQQKPGKAPKLLIYRVSNRFSGVPSRFSGSGSGTDFTLTISSLQPEDFATYYCSQGTHVPPTFGQGTKVEIKR
notes: H2L1 is read as GH2 heavy chain + GL1 light chain; also called hu10G5 H2L1; Hu10G5 (H2L1)
Turning to B4, the “EC50 (pM), killing of MDA-MB-231 cells by antibody coupled to Saporin (FabFc-ZAP), XTT/PMS viability after 72 hrs” value in [13] is 2.68 pM. Besides, the “EC50 (pM), tumour cell killing by antibody-Saporin conjugates, as in Example 20” value in assay [14] was determined as 2.66 pM. The “Half-life (t1/2)” value in assay [15] came out at 81.4 min. In [8], the 1st Response is 323. Moreover, the Kd in assay [16] was 0.0686 nM; in assay [18], 0.192 nM. In addition, the dissociation rate constant (koff) in [16] stood at 0.000142 s⁻¹. Also, in [16], the kon is 2.07e+06 M⁻¹ s⁻¹. In addition, the 2nd Response stood at 301 in assay [19] and 8.9 in [20]. Besides, in [17], the “EC50 (read off the curve)” value was roughly 0.2 nM. The Expected response if independent in assay [21] came out at 318; in assay [22] it was 323.
